This data set in a line: soluble on expression in E. coli; label from the status in PepcDB or PDB records.
Take “MSGSSEIMSMHDQIVRFSASSSAPEDTTTNSLMAEKEASLVVRLEQELTQAQICNHRLNQQLKVLANSSDKAIKIELANAKVRF”: the “soluble on expression in E. coli” value is “not soluble”. The same measure for “MAHHHHHHMEKLREHSERPVPDMLVLPLTASLPQEVQSRVFEPTPPRCRKVVLATNVAETSITITNLYFVVDSGFCKQNVFDPKTGMEQLKIVPISQAQAQQRAGRAGRIGPGKCFRMYTELQFQMDMEPATVPDIQRSNLFHVVLQLKAMGINDLFALDLMDPPPQETLVSALQKLRYLEALDDDGLLTPLGGRMAQLPIDPSQSKTLLTAVDMGCCEPVLTIVSMLAVQKRGVFYRPRDQHEASDAAKRQFHQPEGDQITLLAVYDAWVANGLSEEWCKRNFLKHRILMEARDTREQLSDMLHKRHASIPHHNDDALTEVRRAITAGYFFNVAKRITDVAYATLAERREVYVHPSSCLRDAPPKYVLYNELQLTNREYMRELLVIEPQWLVELAPAFYSRPRKGKLTKEQRAERLNPILRAWENGSSWRISKLRRRK”: “not soluble”; for “MSLNFLDFEQPIAELEAKIDSLTAVSRQDEKLDINIDEEVHRLREKSVELTRKIFADLGAWQIAQLARHPQRPYTLDYVRLAFDEFDELAGDRAYADDKAIVGGIARLDGRPVMIIGHQKGRETKEKIRRNFGMPAPEGYRKALRLMQMAERFKMPIITFIDTPGAYPGVGAEERGQSEAIARNLREMSRLGVPVVCTVIGEGGSGGALAIGVGDKVNMLQYSTYSVISPEGCASILWKSADKAPLAAEAMGIIAPRLKELKLIDSIIPEPLGGAHRNPEAMAASLKAQLLADLADLDVLSTEDLKNRRYQRLMSYGYALEHHHHHH”: “not soluble”; for “MAHHHHHHMTVKNAAKSGKYVWHAMPEEVRKSLKRGSVDETNGIKMGKKGTHATPSEPIYMEVPPDETQRKEKSPPRGMALPHVSTPNEKQPTPMPGETTNSGDVVVSQESGCVGVTHGTQSLSSSRTLKTKHVLHFRGPGWEKVLRKNKKGLESAFKKDVFEATGLEARRIEELKFEFASMLIVTFVVRRENDDEGTSKLHSDLQACAFPRTVLLYRN”: “soluble”.

As to “MEQETLEQVHLTEDGGVVKTILRKGEGGEENAPKKGNEVTVHYVGKLESSGKVFDSSRERNVPFKFHLGQGEVIKGWDICVASMTKNEKCSVRLDSKYGYGEEGCGESIPGNSVLIFEIELISFRE”, the “soluble on expression in E. coli” value is “soluble”. Take “MNREGAPGKSPEEMYIQQKVRVLLMLRKMGSNLTASEEEFLRTYAGVVNSQLSQLPPHSIDQGAEDVVMAFSRSETEDRRQ”: the “soluble on expression in E. coli” value is recorded as “soluble”. “PEFMVTTEPALADLQEQLYNGNEKSQLAAMSTLSTAGTEGYHLLQEFLKDSATFSPPPAPWIRGQAYRLLFHSPEASVQAFLQQHYPQGVIPLRSDRGVDYQELAKLFVAEKFEAADRLTTQKLCELAGPLAQKRRWLYFTEVEQLPIPDLQTIDQLWLAFSLGRFGYSVQRQLWLGCGQNWDRLWEKIGWRQGKRWPRYPNEFIWDLSAPRGHLPLTNQLRGVQVLNALLNHPAWTA”: the “soluble on expression in E. coli” value is on record as “soluble”. For the sequence “MGSDKIHHHHHHMIIDTSCYPTNLVDLAWRHDGEPFSGERLIQMMDGPFTINGKPRRIDKAFIQPPQGNTIYTWTDGEKSGSESIDAYMAYTVEMVKKYPDRFIGCFVYNPRCGVQNGVNAIEHYVKTLGFKMVQFQANMHAYRPDRALDWLRPALQKCAELGVLVKLHTGDGPYSIPTEWVPMMKEFPTVNFIMAHFGVQTGGVYCFEPFQMAMDMPNVYCESGWCLQSRIVEFAKVLPKHKILFGSDTPPNEPGMWLRLLEVLCFEPPQGLNLDEDTLEDYLGNNVARMIGLEPTPVPRTLEEARARLAA”, the “soluble on expression in E. coli” value is on record as “not soluble”. Under “MGSDKIHHHHHHMTSSRSRYLSVMGRELHVTEWGDEAAPALVMWHGLARTGRDFDTLAAHFCDRYRVVCPDTLGRGLSGWSRVPRRDYTLAAYMKHALELLGLLGIDRVTWIGTSMGGALGMLLAAGPLAGRMDRLVMNDIGPTLNPVAVERIRNYLAQHPSFRTMTEFEAYLRQVYRPYGFQTDLEWRRMTETSARRRGDGRITPHYDPAVMRVFAETAGDYEAWGEYDLITCPTLVLRGAESDLLLPEVAQEMTRRGPKARLVTVAGCGHAPSLNVPEQIGVIEDFLA” stands “not soluble”; under “MVLFEKPGKENTRKTLEIAIQKASELSSKKLLIASATGYSARMALEMIPEDMKLVVVTHHAGFEEPDTQEFDEELRKLLKEKGHDVLTATHALSAGERSLRRKFGGIYPLEIIANTLRMFSEGVKVGVEITLMAADAGLVKTSELVVACGGTESGLDSAIVVKPANSPNLFDLKITEILCKPLIS”, “soluble”.

The record behind these values is the DeepSol protein solubility set.
